# Experimental data as given in the DeepSol protein solubility set.
# Assay: soluble on expression in E. coli; label from the status in PepcDB or PDB records
row,Sequence,soluble on expression in E. coli
1,MNLKDKILGVAKELFIKNGYNATTTGEIVKLSESSKGNLYYHFKTKENLFLEILNIEESKWQEQWKKEQIKCKTNREKFYLYNELSLTTEYYYPLQNAIIEFYTEYYKTNSINEKMNKLENKYIDAYHVIFKEGNLNGEWSINDVNAVSKIAANAVNGIVTFTHEQNINERIKLMNKFSQIFLNGLSKHHHHHH,soluble
2,MGSSHHHHHHSSGRENLYFQGHMSNTYQKRKASKEYGLYNQCKKLNDDELFRLLDDHNSLKRISSARVLQLRGGQDAVRLAIEFCSDKNYIRRDIGAFILGQIKICKKCEDNVFNILNNMALNDKSACVRATAIESTAQRCKKNPIYSPKIVEQSQITAFDKSTNVRRATAFAISVINDKATIPLLINLLKDPNGDVRNWAAFAININKYDNSDIRDCFVEMLQDKNEEVRIEAIIGLSYRKDKRVLSVLCDELKKNTVYDDIIEAAGELGDKTLLPVLDTMLYKFDDNEIITSAIDKLKRS,soluble
3,GPGSMDQDLSVCEQEYRKLLDPEEPLFSRTRELYRLKESILRTPAGVHVLAKAVDTTNSVLLQHELVYNLGQSAMVEACPHLERFIRAVGKYDIVTRHEAVEALGAIGDPACIPLLRHFMEPANEPEAAIRESCELALKRIEMLEEKGKEAVGPAANCPFVSIDPAPAFNGTNTGGSAPYTVSELENLLCDTTGAVSLWLRYQAMFTLRNIGTPEAVAALSRALRQDNTSALLRHEVAFVLGQLEHPASQPALLDALRDEHEAPMVRHEAAEALGAIADPKTLPALEEYAKHKEAIVRDSCVVALEMHKYWSQFNNQRIQH,soluble
4,KFRTMRQNLQEASDVLDDQIESFTKIIQNHYKLSPNDFADPTIQSQSEIYAVGRIVPDSPTYDKFLNPESLSLETSRMGGVGRRVRLDLSQVNELSFFLGQIVAFKGKNANGDYFTVNSILPLPYPNSPVSTSQELQEFQANLEGSSLKVIVTCGPYFANDNFSLELLQEFIDSINNEVKPHVLIMFGPFIDITHPLIASGKLPNFPQFKTQPKTLDELFLKLFTPILKTISPHIQTVLIPSTKDAISNHAAYPQASLIRKALQLPKRNFKCMANPSSFQINEIYFGCSNVDTFKDLKEVIKGGTTSSRYRLDRVSEHILQQRRYYPIFPGSIRTRIKPKDVSTKKETNDMESKEEKVYEHISGADLDVSYLGLTEFVGGFSPDIMIIPSELQHFARVVQNVVVINPGRFIRATGNRGSYAQITVQCPDLEDGKLTLVEGEEPVYLHNVWKRARVDLIAS,soluble
5,MLNYTGLENKNVLVVGLAKSGYEAAKLLSKLGANVTVNDGKDLSQDAHAKDLESMGISVVSGSHPLTLLDNNPIIVKNPGIPYTVSIIDEAVKRGLKILTEVELSYLISEAPIIAVTGTNGKTTVTSLIGDMFKKSRLTGRLSGNIGYVASKVAQEVKPTDYLVTELSSFQLLGIEKYKPHIAIITNIYSAHLDYHENLENYQNAKKQIYKNQTEEDYLICNYHQRQVIESEELKAKTLYFSTQQEVDGIYIKDGFIVYKGVRIINTEDLVLPGEHNLENILAAVLACILAGVPIKAIIDSLTTFSGIEHRLQYVGTNRTNKYYNDSKATNTLATQFALNSFNQPIIWLCGGLDRGNEFDELIPYMENVRAMVVFGQTKAKFAKLGNSQGKSVIEANNVEDAVDKVQDIIEPNDVVLLSPACASWDQYSTFEERGEKFIERFRAHLPSY,not soluble
6,MTKQLPNLQVALDHSNLKGAITAAVSVGNEVDVIEAGTVCLLQVGSELVEVLRSLFPDKIIVADTKCADAGGTVAKNNAVRGADWMTCICSATIPTMKAARKAIEDINPDKGEIQVELYGDWTYDQAQQWLDAGISQAIYHQSRDALLAGETWGEKDLNKVKKLIEMGFRVSVTGGLSVDTLKLFEGVDVFTFIAGRGITEAKNPAGAARAFKDEIKRIWG,soluble
7,MGSDKIHHHHHHMKAAIITKYKQITPMVTEVPVPTIAPTDVLVKIVAASVNPIDLKTKDGDLRLLLQYTMPLIMGSDFAGVITAVGDQVPDFKVGDAVYGRAPKDRIGTFAEFIAIDHQAIALKPANLNFEEAAAIPLVGLTSYQALHDIMNIQPGQKVFIPGGSGGIGIIAIQLAKYFGAYVATTTSAKHFDLVQSLGADKIIDYHQQDFTDVLSHYDAVLDTRGGQSLEAAFQIIKPGGQIVSIAGLPNARFGKDYGLPIWKQWLLGLATRKLSRLEQQAQATYSFLFMQPSGQQLVRLRQLIEQGVIKPVVDRIIPLTDINAALEYSHSGHTTGKIIISIQPN,not soluble
8,MYKLIDSAKFIMCVRSKRFRPDTLMDIFYLLNIQNMNCKKLFKTLLFIITTLVIVSCSKDDCDLDHIDKLQGLPALKAGTFPEEDLTLNVGEQYVYAPKASSPLDIYYQWYQNGEDMSTAPSFTFNAEHPGRSKVILELSNDLGKVTLENKVMVPGADYSKGCLIINEGWFGHGSGSISFYNYEKNSIEHWCYKNQNFGDVLGVTSQSATLWNGKLYVCSKEDNQLVVMDPKTLYAENSCGKLANYQAYEFIGLNDDYGIITHGGYFSRINLKTFETITLVSVGNTYTGTGSGIAYNGKLILNVNSSGWGSPKVYTIDIAELCSPDLKPTDKVAFQELDIATYGGTRFVQCKDGNIYTVETTKDGKNNLVRINADFSLKKVAMRDDYSPSSFGAYREASFCGTPEGIFYYIAGGKIYKATFDNPAPEETLTEYTKEGYGFYGAGIRVNPKTNELLAMYLTGDYQKNLLVRFNAATGEKISEIAYDGYYFPATFIFN,not soluble
9,GSFTSSGCQEANYGALLRELCLTQFQVDMEAVGETLWCDWGRTIRSYRELADCTWHMAEKLGCFWPNAEVDRFFLAVHGRYFRSCPISGRAVR,soluble
10,MPYLNADRGKSGGYHIGHTLLWSSGKSRLEAIRYHVETSALEKIMFARLLSSERDEYSSEETEHRFDEGLQIYGYSPEDVSKARNKMAGFLAGWRHAVSVRRASMEQSADTEQ,soluble
11,MRVLHVCSELFPLLKTGGLADVIGALPAAQLAEGADVRIILPAFPDLRRGIPETVLVREIDTFAGRVALRYGHYRGIGIYLIDAPALYDRAGSPYHDASLYAYSDNYLRFALLGWMACELACGLDGYWRPEVVHAHDWHAGLTCAYLAARGRPARSVFTVHNLAYQGLFSADHLSELHLPAEFFQIYGLEFYGQISYLKAGLFFADHVTTVSPTYAKEITQPAFGYGMEGLLQALARQGRLTGILNGVDSDIWDPQSDTLLPTRYDAENLQAKAINKTHLQTAMGLQLAENKPIFAVVSRLTVQKGLDLVLEALPELLALGGQLVVLGSGDATLQEAFLAAAAEHSGQVGVQIGYHEAFSHRIIAGSDVILVPSRFEPCGLTQLYGLKYGTLPLVRHTGGLADTVVDCALENLADGSASGFVFNECEAQALVKAIRRAFVLWSRPKHWRHVQRHAMRLDFGWQLAAVDYLSLYRRL,not soluble
12,MSLSEADTSNAKLADFFAKKGNEPLSEIEMEGVLALMQKSRGVADESSFLGNSSRLLGDISNANASQVLRTGNISTSSALNVPNFKPSTDESRNINAKEVENSTIVSTPLKRKNFDYSSIRSPYRTVIYRFDDSNKKKISSVFDKPESSSQEVDETPKPSNSKPLSNTASALVSLLSDKDAAKESIKPMANPYTSHLTALRKSREDLPSINDKITVPKRRQRSETEDKEEAKITSSNGEAQEDTNIPEGIASRKNEEAQDSFTKYKPMRSSSLRDSVSLAHTESNNEKQMNSPKFVPAPLDKNETKETAKSDLTLTSSDKQSESKPSFSFPVNSTTKSTFMGTKKESTSPAVNSQAVKNVSNNETKEIKPQVHECIYDFGNPTSSGFKKTDIDDTLVSKYRGQFVFEGHHHHHH,soluble
13,MGSDKIHHHHHHMTPITQSEINKAAWGACDTFRGVVDPSIYKDYVLTMLFLKYVSDVWKDHKASYAAHYPDSPELVAAMMERETFKLPETASFDALHGRRHEPGNGERIDKALHAIEEANGSKLRDVFQDISFNSNKLGDEEQKNDILRHLLEDFAKTALDLRPSRVGNLDIIGGAYEYLISRFAATAGKKAGEFYTPAEVSELMARLVDPQPGDDICDPTCGSASLLMKCGRLIREGGSKAYALFGQEAIGSTWALAKMNLFLHGEENHQIEWGDTIRNPKLRTSDDMLRHFDVVVANPPFSLDKWGVESAEADKFARFRRGIPPKTKGDYAFILHMIETLKPKTGRMAVVVPHGVLFRGSSEGKIRHKLIEDNLLDAVIGLPEKLFFGTGIPSAILVFRKDKADDSVLFVDASREFVAGTNQNALDMTLIEKIVATHQTRQTVEKYAYRATLAEIIENDFNLNIPRYVDTFEEEEEIDLMAVRAERMKLKGEMAELEDRMEGYLQELGY,not soluble
14,MAFSMLFTGHAECVKFVKKFNLPLLVTGGGGYTKENVARCWTVETGILLDTELPNEISENDYIKYFAPDFSLKIPGGHIENLNTKSYISSIKVQILENLRYIQHAPSVQMQEVPPDFYIPDFDEDEQNPDVRVDQRSRDKQIQRDDEYFDGDNDNDAS,not soluble
15,MGSDKIHHHHHHMFSIKRVIYYQELIRVGSFTKAAKALNISQAFLSQEIARLEIETERKLINRTTRQFSLTPFGQIFADKIQGMIKEHYELEQFVSSYEESTDGALLVGVIPIFNRLAHYNMFNLFQKAYPNIDISFIDGVSTDLLERVRNGEIHLSFSTPFDEYLNDPLFHHTICQIDDIVAVMATSHPLADNKTLSLPQLVKEKLIVPQKGTGEHAAVSESFTRQGINPSYFRECSNMDIIMDLVMNLSGVVFLCSSVAKSLTAYDVAVIPLEEQLKRTFAISYLKRSVNIPMVRLFLDFLQDYSESVR,not soluble
16,MAHHHHHHMEVRRIAPIGRAAVLVMKNVSGNMWAGYSDGAIRVFDHVTQKVLRQSTQHTAAVYAMCAADGYVFTGGADGKVYQWMADDLHYSHMYYGHRNAVRSLTTYTDQKSRCRYVVSGSDDGTVKVWEATVAKTSGTPRKDGGCVSTLDGQGRCVLSILVLEDAAELWAGSEDSVIRVWDLSSMTVTTVITGHRAPVVTLLKVGDTVWSGSKDGAITITNRFSKDIVHQASQPPANRSAAPGGQRSSVSILPVTRTVVYEVWATAVDGSWQCWNFTVPEGVKSYVEEADVLKGGWCPSHSRPQRLSRVGQRSSRNVRSSSVNEYSENGLHSASARARRSDEKLRASVAQTRRTVAVLLAGSKVHQGLGAHNGNGFAHRNEAASVDIVDDDDTPLDIVAESIRNDHTAETQREVQLKQAALAKERRKSAKLRAALEMMCKDPVAIAEEGAKKVFRRTDSLVIAETLAMERQSGKLGSPTTEKLVGVSSQLELLKAQNKAMAAAVTESKKVPD,soluble
17,MKVLGLIVEYNPFHNGHLYHLEESKKISGADFVVCVMSGNFIQRGEPAIVNKWARTKMALSAGADLVIELPLSCAMASAEYFASGAVRILNDIGIVDYICFGSEHGDVKTLDYIAQILVEEPESYKSFLKEELDNGLSYPAARESALKKYTAHSINIPQIISSSNNILGIEYLKALRRIKSSIIPLTIKRINNDYNTENITGSISSASSIRKYISTSNSTSFDDVLAMTMPKTSVDILFEEFSAGRGPVFKEDFYPVVTSLIRKMTPEQIRNFAYVSEGLENRIKSAADTAGTYEELVESICTRRYTKTRVQRILMGILMGVTSKDLDMLSRFDSPQYARILGFNSKGKQLLSQIKKKSSIPLVLKLSDFIKSCDPVLKRKLELEILATDLYVMCYKNPAFRKAGQEFTQNIIIM,soluble
18,MGSDKIHHHHHHMHFLEKYRFLVIGHRGLPSLCLENTVESFNATFNAGMPAVELDVQYTADGVPVVFHDFDLNRLAGRNSRIGDLKWDDLSKIRLASGSTIPRLSDVLSAFENFNFFIEIKIEKFDNAERKLTDDVARMVIDRSMNDNVVMISFNASAMRYVRDHYDGIITGLDFESPDEADDAVNNNVALPYYAIIDEVFDKIKERPVIPWTVDSYSTAVRLKEMGCRGIITNTGDRFISLIE,not soluble
